These results are taken from patent US20180335433A1, “COMPOSITIONS TARGETING PKC-THETA AND USES AND METHODS OF TREATING PKC-THETA PATHOLOGIES, ADVERSE IMMUNE RESPONSES AND DISEASES” (La Jolla Institute for Allergy and Immunology, priority 2011, published 2018).

This test relates to Th1-mediated lung inflammation. The test can be described thus: Th1-mediated Ova-induced airway inflammation after adoptive transfer of transduced Th1 effector cells. The class given is in vivo, mouse. Conditions: transferred Th1 effector cells. From the text:
(FIG. 7A-7D) OT-II CD4^+ T cells stimulated with anti-CD3 plus anti-CD28 mAbs and differentiated in vitro under Th2 (FIG. 7A-7C) or Th1 (FIG. 7D, 7E)-polarizing conditions were retrovitrally transduced with the same PKCθ V3 vectors as in FIG. 6. Sorted GFP^+ populations were adoptively transferred into naïve B6 mice, which were challenged with aerosolized Ova for 3 consecutive days. BAL fluid were obtained 1 d post-challenge and analyzed for total mononuclear cell infiltration (FIG. 7A, 7D) and cytokine expression using IL-4 (FIG. 7B), IL-5 (FIG. 7C) and IFN-γ (FIG. 7E) ELISA.
CD4^+ T cells from OT-II B6 mice were isolated and cultured with plate-bound anti-CD3 (5 μg/ml), soluble anti-CD28 (2.5 μg/ml) and IL-2 (100 U/ml) under Th1 or Th2 polarizing conditions. The cells were retrovirally infected on days 2-4 and cultured for an additional 3 days. GFP^+ cells were sorted, and 1×10^6 cells were injected intravenously into naïve WT B6 mice. One day later, mice received aerosolized Ova (5 mg/ml in 20 ml PBS) for 30 min, once a day for 3 consecutive days, using ultrasonic nebulization. Mice were sacrificed 24 h after the last challenge and assessed for lung inflammation. Collection of BAL fluid and determination of cytokine levels were carried out as described (Salek-Ardakani, S. et al. J Immunol 173, 6440-6447 (2004)).

B1: V3 domain: amino acid 282-379 of human PKCθ with N-terminal Myc tag, expressed from pMIG retroviral vector (protein)
chain: GINQKLMAEALAMIESTQQARCLRDTEQIFREGPVEIGLPCSIKNEARPPCLPTPGKREPQGISWESPLDEVDKMCHLPEPELNKERPSLQIKLKIED
modifications: left off: small tags and cut ends
notes: amino acid 282-379 of human PKCθ with N-terminal Myc tag, expressed from pMIG retroviral vector
As for B1, the “inhibition of the Th1 lung inflammation response (leukocyte infiltration, IFN-γ in BAL fluid)” value was “did not inhibit”.
